This is an account of results in article PMC5006311.

The nature of the data set: immunofluorescence confocal microscopy, HEK293. As to conditions: glycan lost; control: wt hENT1 (HA- or 3xFLAG-tagged).

B1: human equilibrative nucleoside transporter 1 (hENT1): N48Q (protein)
parent chain: MTTSHQPQDRYKAVWLIFFMLGLGTLLPWNFFMTATQYFTNRLDMSQNVSLVTAELSKDAQASAAPAAPLPERNSLSAIFNNVMTLCAMLPLLLFTYLNSFLHQRIPQSVRILGSLVAILLVFLITAILVKVQLDALPFFVITMIKIVLINSFGAILQGSLFGLAGLLPASYTAPIMSGQGLAGFFASVAMICAIASGSELSESAFGYFITACAVIILTIICYLGLPRLEFYRYYQQLKLEGPGEQETKLDLISKGEEPRAGKEESGVSVSNSQPTNESHSIKAILKNISVLAFSVCFIFTITIGMFPAVTVEVKSSIAGSSTWERYFIPVSCFLTFNIFDWLGRSLTAVFMWPGKDSRWLPSLVLARLVFVPLLLLCNIKPRRYLTVVFEHDAWFIFFMAAFAFSNGYLASLCMCFGPKKVKPAEAETAGAIMAFFLCLGLALGAVFSFLFRAIV
As for B1, the localisation_or_trafficking result is “decreases”.
